Test: soluble on expression in E. coli; label from the status in PepcDB or PDB records

| Sequence | soluble on expression in E. coli |
| --- | --- |
| MSGVRMIDRWEEDNKMFLRLYIKERVLPTIYGSILGDLVGVPVEFKKRGSFFVEDIIGYGTYNQPAGTWSDDTSLTLCLIENIVEEGTIKSLMEKFVNYQDKGYMTPYGQMFDIGGATAQAIGRFKAGCLPQNCGGQSEYDNGNGAIMRISPLAFLFDNEFDFVKKAEVIKQYTEITHAHPRAIVGSIIYIELLLRLYHNNTLEKSIKDILDLFEENFPKNHIYMDEFKYYKRIFDSNFFNVPEEQILSDGYVVHTLEAAIWCVGNTKNFKEAILKAVNLGGDTDTVGVITGAIAGMYYKMDEIPQDWLNKIAKKQDIDELINKFYKYCADKAVIEKYGSL | not soluble |
| MGSDKIHHHHHHMTSPSPDQVIRQEILALSAYHVPPAKDMVKLDAMENPYRLPPFLCEEISRIAADTSINRYPDPHAAALKEVLSTTLSVPAGMEIMLGNGSDEIIQIIMLAAAKPEAKLLTIEPGFAMFKMIATFANMQYIGIPLKPDFSLDIDRMLAAIERHQPSVIFLAYPNNPSGNLFDTSALEKIIEISPGLVVIDEAYHPFAGKSFIGRLADYPNLLVMRTLSKLGLAGLRLGLLAGRPEWLSHLEKLRLPYNVNVITQLVATKIMQHYDVLQQQADAIRQTRTRLRTFLENLNGIEVFPSNANFILFRLDGASQIFRLLQQHGILVKNLDNSHPLLKNCLRVTVGTPEENDRFCNTLQDLIAGN | not soluble |
| MARGIKLVIFDVDGVLVEVKSSWGYIHRRLGVEEEAMKVKEMFERGSIDYIEWMRLDTELWIRASGGRLHRSRLMEIVGEIPVRKEAFEAVRMLRRMGLRIGLVSSGIDLLVRRVAAEIGADAWASNRLLFDKNGFLQPGGSPLVGVDKRGAVTRMAYELGASLEEVAYVGDSRWDASAMSIVGLPIAYNDGGELDGVARARVDSLLDVPRVVAEWGRARAR | not soluble |
| GPGSMMTPEDATGLEAARKQKIHNLKLKTACLENEELVQELHISDWSETQRQKLRGAHEKGEELLASVEVGTKWNLMEAYDLAKLMRVCGLEMSQRELYRPEDKPQFMDIIGVKKVLQDLRQNRNKTRVVSFTQLIDNSIAKMEKVEEELRRSQLDATQLAQVPTRTVKMMEDIMNATQIQNALASTDDQMQTQLAQLEKTNEIQNVAMHDGEMQVAEEQMWTKVQLQERLIELLKDKFGLIGKCEEENAQFKEIYEVQKQANQETSQMKDAKRRLRQRCETDLKHIQDAIQKADLEDAEAAKRYAGNKERSERAIKENEEMQEEAWNKIQDLERQLQNLGTDRFDEVKRRIEEVDREEKRRVENAQFLEIAAQHKKLLELTVYNCDLAMRCTGLVEELVSEGCAGVKARYDKTNQDLAALRLEVHKEHLEYFRMLYLTLGSLIYKKEKRLEEIDRNIRLAHIQLEFCVETFDPNAKKHADMKKELYKLRQGVEEELAMLKEKQAAALDDFKESEEALDAAGIEFSHPVDENNEEVLTRRSKMVEYKSHLTKQEEVRIAAEREEIKRARLLRSGGESAAAQITSGSMNADYAASAQLEL | soluble |
| MGSDKIHHHHHHKDDDNVETGAFDPSKPVAISDFTPKEGGAYQKLLIYGENFGTDVSKVKVKIGGKDAIVINVKSTYVYCFVPSGAFSGEIEITVGEGENAVTTTASTTFSYEKKMVVGTLCGYRNNRDDQGWRDGPFDGPEGVKCCGFSDNGRLAFDPLNKDHLYICYDGHKAIQLIDLKNRMLSSPLNINTIPTNRIRSIAFNKKIEGYADEAEYMIVAIDYDGKGDESPSVYIIKRNADGTFDDRSDIQLIAAYKQCNGATIHPINGELYFNSYEKGQVFRLDLVDYFKTIKNGGSWDPIVKNNPNTFKQLFTIADPSWEFQIFIHPTGKYAYFGVINNHYFMRSDYDEIKKEFITPYNFVGGYKQSGYRDDVGTEARMNNPCQGVFVKNPDYTGEEEYDFYFVDRLNFCVRKVTPEGIVSTYAGRGASTSLADGNQWGTDDGDLREVARFRDVSGLVYDDVKEMFYVHDQVGHTIRTISMEQEENVAGDENIPEDESTVESNE | not soluble |
| MQGLELPQSYFNAAAKRQKYAMKPGLSALEKNAVIKAAYRQIFERDITKAYSQSISYLESQVRNGDISMKEFVRRLAKSPLYRKQFFEPFINSRALELAFRHILGRGPSSREEVQKYFSIVSSGGLPALVDALVDSQEYADYFGEETVPYLRGLEHHHHHH | not soluble |
